The assay deals with T1, human Complement component 5 (C5) (human, UniProt P01031 19-1676, limits assumed).
T1 construct: also called human C5
Briefly: ELISA, binding to human C5 at pH 7.4 (C5 ELISA, absorbance at 450 nm). The protocol:
The exemplary antibodies were tested for binding to human C5 at pH 7.4 using ELISA.

For orientation: EC50 means the midpoint of the concentration-response curve. Low values mean higher potency in that assay, high ones lower potency in that assay. One may read the EC50 (read off the curve) as the midpoint of the concentration-response curve. A high value points to a need for much substance.

Changes are numbered by the printed parent chain.

T1 sequence (P01031 19-1676 limits assumed): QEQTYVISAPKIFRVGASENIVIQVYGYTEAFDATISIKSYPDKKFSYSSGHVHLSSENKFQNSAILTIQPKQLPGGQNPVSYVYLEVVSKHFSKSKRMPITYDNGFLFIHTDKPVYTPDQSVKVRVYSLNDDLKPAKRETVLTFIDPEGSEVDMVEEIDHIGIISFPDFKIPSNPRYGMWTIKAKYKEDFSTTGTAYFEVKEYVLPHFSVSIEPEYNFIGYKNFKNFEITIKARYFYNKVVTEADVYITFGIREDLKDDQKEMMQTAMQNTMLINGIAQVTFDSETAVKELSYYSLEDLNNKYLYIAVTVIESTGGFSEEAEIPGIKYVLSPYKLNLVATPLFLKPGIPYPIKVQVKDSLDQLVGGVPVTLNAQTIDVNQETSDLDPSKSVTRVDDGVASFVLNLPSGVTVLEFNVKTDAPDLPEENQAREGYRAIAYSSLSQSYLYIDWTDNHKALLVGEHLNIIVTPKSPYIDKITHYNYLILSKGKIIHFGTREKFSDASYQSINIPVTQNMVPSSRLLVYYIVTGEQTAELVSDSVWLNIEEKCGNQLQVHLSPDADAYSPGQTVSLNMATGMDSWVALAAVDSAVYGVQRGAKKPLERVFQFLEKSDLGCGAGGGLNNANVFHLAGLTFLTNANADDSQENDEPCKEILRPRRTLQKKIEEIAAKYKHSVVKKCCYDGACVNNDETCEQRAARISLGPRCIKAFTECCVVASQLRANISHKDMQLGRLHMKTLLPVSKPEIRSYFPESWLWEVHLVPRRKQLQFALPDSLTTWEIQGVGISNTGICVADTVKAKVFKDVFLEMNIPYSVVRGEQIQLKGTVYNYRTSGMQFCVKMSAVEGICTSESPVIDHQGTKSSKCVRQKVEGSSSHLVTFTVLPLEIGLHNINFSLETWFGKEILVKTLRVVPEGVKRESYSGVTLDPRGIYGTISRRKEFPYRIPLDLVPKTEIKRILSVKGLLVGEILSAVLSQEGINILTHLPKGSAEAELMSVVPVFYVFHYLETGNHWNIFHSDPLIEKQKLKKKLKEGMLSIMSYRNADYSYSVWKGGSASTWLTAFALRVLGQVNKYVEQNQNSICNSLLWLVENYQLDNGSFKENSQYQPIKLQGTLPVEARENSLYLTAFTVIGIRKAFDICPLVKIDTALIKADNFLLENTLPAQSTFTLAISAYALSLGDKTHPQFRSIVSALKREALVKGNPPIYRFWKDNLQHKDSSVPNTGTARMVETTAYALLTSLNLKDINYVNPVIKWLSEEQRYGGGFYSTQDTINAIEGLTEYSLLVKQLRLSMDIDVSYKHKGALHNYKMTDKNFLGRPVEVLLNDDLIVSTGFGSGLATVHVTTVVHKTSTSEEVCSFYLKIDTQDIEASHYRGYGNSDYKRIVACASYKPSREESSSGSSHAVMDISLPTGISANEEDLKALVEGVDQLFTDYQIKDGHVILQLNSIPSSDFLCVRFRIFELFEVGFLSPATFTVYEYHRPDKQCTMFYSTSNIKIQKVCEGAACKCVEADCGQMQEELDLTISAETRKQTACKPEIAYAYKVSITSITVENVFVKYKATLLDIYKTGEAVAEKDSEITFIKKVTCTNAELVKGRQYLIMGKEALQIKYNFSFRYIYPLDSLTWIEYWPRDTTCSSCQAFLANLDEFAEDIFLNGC

B1: ATG-001 (antibody, V domains shown)
VH: QVQLVQSGAEVKKPGASVKVSCKASGYIFTNYWMQWVRQAPGQGLEWMGEILPGTGSTEYAQKFQGRVTMTRDTSISTVYMEVRRLRSDDTAVYYCARYFFGSTPNWYFDVWGQGTLVTVSS
VL: EIVMTQSPSSLSASVGDRVTITCGATENIYGALNWYQHEPGKAPKLLIYGASNLADGVTSRFSGSGSGTDFTLTISTLQPEDFATYYCQNVLNTPLSFGGGTKVDIKR
notes: Expressed in Expi CHO cells; also called anti-C5 monoclonal antibody ATG-001
As for B1, the EC50 turned out to be 0.099 µg/mL.

B2: ATG-005 (antibody, V domains shown)
VH: B1 VH
VL: B1 VL with L54R, A55Y, D56T, N90Q, L96V
notes: Expressed in Expi CHO cells; also called anti-C5 monoclonal antibody ATG-005
For B2, the EC50 is 0.041 µg/mL and the “EC50 (read off the curve)” value was around 0.04 µg/mL.

B3: ATG-006 (antibody, V domains shown)
VH: B1 VH with N31D, Y32F, W33Y
VL: B1 VL with L54R, A55Y, D56T, N90Q, L96V
notes: Expressed in Expi CHO cells; also called anti-C5 monoclonal antibody ATG-006
With B3, the EC50 came out at 0.034 µg/mL and the “EC50 (read off the curve)” value was around 0.03 µg/mL.

B4: ATG-008 (antibody, IgG2)
heavy: QVQLVQSGAEVKKPGASVKVSCKASGHIFTDFYMQWVRQAPGQGLEWMGEILPGTGHTEYAQKFQGRVTMTRDTSISTVYMEVRRLRSDDTAVYYCARYFFGSTPNWYFDVWGQGTLVTVSSASTKGPSVFPLAPCSRSTSESTAALGCLVKDYFPEPVTVSWNSGALTSGVHTFPAVLQSSGLYSLSSVVTVPSSNFGTQTYTCNVDHKPSNTKVDKTVERKCCVECPPCPAPPVAGPSVFLFPPKPKDTLMISRTPEVTCVVVDVSQEDPEVQFNWYVDGVEVHNAKTKPREEQFNSTYRVVSVLTVLHQDWLNGKEYKCKVSNKGLPSSIEKTISKAKGQPREPQVYTLPPSQEEMTKNQVSLTCLVKGFYPSDIAVEWESNGQPENNYKTTPPVLDSDGSFFLYSRLTVDKSRWQEGNVFSCSVLHEALHSHYTQKSLSLSLGK
light: EIVMTQSPSSLSASVGDRVTITCGATENIYGALNWYQHEPGKAPKLLIYGASNRYTGVTSRFSGSGSGTDFTLTISTLQPEDFATYYCQQVLNTPVSFGGGTKVDIKRTVAAPSVFIFPPSDEQLKSGTASVVCLLNNFYPREAKVQWKVDNALQSGNSQESVTEQDSKDSTYSLSSTLTLSKADYEKHKVYACEVTHQGLSSPVTKSFNRGEC
notes: Expressed in Expi CHO cells; also called anti-C5 monoclonal antibody ATG-008
On to B4, for which the EC50 worked out at 0.09 µg/mL.

B5: ATG-012 (antibody, IgG2)
heavy: B4 heavy with M253Y, S255T, T257E, L429M, S435N
light: B4 light
notes: Same variable regions as ATG-008; Expressed in Expi CHO cells; also called anti-C5 monoclonal antibody ATG-012
The molecule B5 came in with an EC50 of 0.52 µg/mL.
